Results: the DeepSol protein solubility set

Assay: soluble on expression in E. coli; label from the status in PepcDB or PDB records

Which “soluble on expression in E. coli” value does the source give for “WTGEDSAEPNSDSAEWIRDMYAKVTEIWQEVMQRRDDDGTLHAACQVQPSATLDAAQPRVTGVVLFRQLAPRAKLDAFFALEGFPTEPNSSSRAIHVHQFGDLSQGCESTGPHYNPLAVPHPQHPGDFGNFAVRDGSLWRYRAGLAASLAGPHSIVGRAVVVHAGEDDLGRGGNQASVENGNAGRRLACCVVGVCGPGLWERQAREHSERKKRRRESECKAA” here?
Its value is “soluble”.

Which “soluble on expression in E. coli” value does the source give for “DYYFDSYDHYGIHEEMLQDTVRTLSYRNAIIQNKDLFKDKIVLDVGCGTGILSMFAAKHGAKHVIGVDMSSIIEMAKELVELNGFSDKITLLRGKLEDVHLPFPKVDIIISEWMGYFLLYESMMDTVLYARDHYLVEGGLIFPDKCSIHLAGLEDSQYKDEKLNYWQDVYGFDYSPFVPLVLHEPIVDTVERNNVNTTSDKLIEFDLNTVKISDLAFKSNFKLTAKRQDMINGIVTWFDIVFPAPKGKRPVEFSTGPHAPYTHWKQTIFYFPDDLDAETGDTIEGELVCSPNEKNNRDLNIKISYKFESNGIDGNSRSRKNEGSYLMH” here?
The value was “soluble”.

For “MAHHHHHHMILLQLTVVGYLNTGKTSLINSIMNNEIFTNYSHTPLPMIYYKVHKDKNRAFCVEIEDTSVDVDINNFTNMMRKEITTNSKNMKNPVFSYFENPCIPFQAHDPYNSISYGRMAYFLVFDLTNPSTFEYVKMIYLNMSSIYEKYYTLKPFISLVGNKSDLADENCALVREAENFSNEHMVQLWLTSAYTGKNVKKLFLHTINMVYNNTNLWKYDIEESGSESSES”, which “soluble on expression in E. coli” value is on record?
The value was “not soluble”.

Which “soluble on expression in E. coli” value does the source give for “MGDVQMGNCLRIPSANMAPALPEHGTAEASTSNPMPHAGNMTAGPQEHTAVEGCAGRQIADMWLSSLERPARRPSGSRSQPTAQSRPQSKLEKLTEQRQSMLQRAIILEDQWRSLQERCARTSVGGRQAFNLDILKGIIDRDKQALERMGGEGSYIAERHLHRIERTLQDFEKKISNQKKLQSHLAKANDFLARLKLLKDELSSRGENKDILNDIDLNIKDLEGILNELTRIEANGAGIQYDGCRGGAIAYFDSVTISLEAMLRSQDSGYFDYMRPALANVLQDGYSPSRRKAVSDAGMRGGASDGIS” here?
The value was “not soluble”.

With “MPPPTASTPDDSADPGPDFADVPPTDLVKVGFIFRPHGLDGELKIDPSATDDPARFEVLPTVFVGPHPRRVVRHDIASVRYQKTKRGITVILGLDGIVDRDDAEAVAKMDVFATEAALGLEDDELFADDLVGWTVVTEEGAVQGTVADFMEMPAQDLFVVRTPEDTEAMIPAIDDFIIEIDEEAERIVVRPIDGLMDALEHHHHHH” as the sequence, how does the “soluble on expression in E. coli” value read?
The value was “not soluble”.

Which “soluble on expression in E. coli” value does the source give for “MNFLDAVYNAGVVGAGGAGFPTHLKMTKEVGTFIVNGAECEPLLEVDKFLMREKTYELIKGMEIIAGNLKAARVVLGLKKKYKVEIKKLSETIKELDSNVELFLMDNFYPAGDEQIMVKDITGKSIPAGGIPLDVDTVVSNVGTVINVYEAIEEKPVTKKYVSVLGEVNNPVMLEVPIGTSFEECIKRAGGVKIKNYAVIEGGPMMGKIVHRDELAEKAVIKTTGALIILPEDHYVIKRKERPEAHILNESRAACIQCRMCTDMCPRYLIGHKLRPHRVMRAMGMGEQDEEILKEALICCECNVCELFACPMGISPKSTNTYLKGVFREKGVRYDGNKEIPSEHEMRDYRKIPVNRLIARLNLSRYYNNKVADLQELKADKVKIFLSQHIGKPAVPLVKEGDRVIEGQRIAEVGREEFGANIHASINGVVTKVEKSYIEIDGMV” here?
The value was “not soluble”.

With “ANQPDWADEAANGAHQDAWKSLKARVENVYYMVKATYKNDPVWGNDFTCVGVMANDVNEDEKSIQAEFLFMNNADTNMQFATEKVTAVKMYGYNRENAFRYETEDGQVFTDVIAYSDDNCDVIYVPGTDGNEEGYELWTTDYDNIPANCLNKFNEYAVGRETRDVFTSACLE” as the sequence, how does the “soluble on expression in E. coli” value read?
The value was “soluble”.

For “MKKMLTFLTTCALSFGVSAQSWEETTEKARGQTVYFHAWGGSQEINSYLRWSADLLKSRYGVTLQHVKVTDIAETTTRLIAEKAAGKNEQGSVDLVWINGENFKSMKNNQLLYGPFVEDLPNWPKVDKSLPVDSDFSEPTEGLEAPWGVGQLVFIHDKQQVNNPPASFAELLSYAQAFPNRISYPQPPEFHGTSFLKAALIELTHYAPELNQAVEPATFEQLTQPLWQYLDELHAVAWRKGKQFPAGSAQMMQLLDDGQLDLAITFNPNAVFSAQATGKLAPTAQSYAMKKGALTNIHFLAIPWNANAKEGALVAINFLLSDEAQSRKGDLSIWGDPSILKPQFLTGSAKNTILFPAIAEPHPSWQSALEAEWQKRYGNSLK”, which “soluble on expression in E. coli” value is on record?
The value was “not soluble”.

With “MLNEFDQYLHERYLSGKARKDRWYWNNSIQRGRSTAVRENWQWKPAVAYCRYADDFVLIVKGTKAQAEAIREECRGVLEGSLKLRLNMDKTKITHVNDGFIFLGHRIIRKRSRYGEMRVVSTIPQEKARNFAASLTALLSGNYSESKVDMAEQLNRKLKGWAMFYQFVDFKAKVFSYIDRVVFWKLAHWLARKYRTGIASLMRWWCKSPKPGQSKTWVLFGKTNHGKLSGEILYRLVGQGKKLFRWRLPEGNPYLRTETRNTYTSRFTEVAMAFASI” as the sequence, how does the “soluble on expression in E. coli” value read?
The value was “not soluble”.

Which “soluble on expression in E. coli” value does the source give for “MPAPLWSPSAERIAASRMEAFRRFVNQRHALGLVDYPALHAWSVQRREAFWQAIVDFFEVRFQQPPRAVLEEGAQMPSARWFPGATLNFAEHLLRRRDDAPALIAVSEDGRREVLSHAELARHVAGLQKRLAALGIGPGDRVAALMPNTWQTVVGMLATASLGATWSSCSPDFGTQGVIDRFGQIEPRVLIACAGYRYAGKSLDLTAKLNEVLAGLPGLEQLLVVPYDRPQAQPQDYRCQAQVALWDGFYQAEGEPVFTPVPFEQPLYILYSSGTTGVPKCIVHATGGVLLQHLKEHGLHTDLGDGDRLFYYTTCGWMMWNWLASGLAVGASLVLYDGSPFHPGPERLLDLIDAEDIAVFGASAKYLAALEKAGMRPRHSHRLDSLRTLLSTGSPLAHESFDYVYRELKSDLCLSSISGGTDIVSCFAIGNPVLPVWRGELQCKALGMAVEIWDDDGRRLASGKGELVCTRHFPSIPLGFWNDPDGTRFHDAYFASFPGVWAHGDYAEETVHGGLVIHGRSDAVLNPGGVRIGTAEIYRQVEKVEEVLESIAIGQDWQGDVRVLLFVRLRDGVRLDEPLRERIRQTIRANATPRHVPAKIIQVADIPRTLSGKIVELAVRNVIHGRPVKNTDALANPQALELYRDLAEL” here?
Its value is “not soluble”.

For “MITMTEVKGKTANESRVFKTSRVFPTDLNDHNTLFGGKILSEMDMVASISASRHSRKECVTASMDWVDFLHPVRSSDCVSYESFVIWTGRTSMEVFVKVVSEYLISGEKRIAATSFVTFVALSKENNPVPVPRVIPDTEEEKESHRIAVLRAEQRHIRKAESKKVATLLTF”, which “soluble on expression in E. coli” value is on record?
Its value is “soluble”.

Which “soluble on expression in E. coli” value does the source give for “YLSKYRNETGRSPSFLVNIDSSLKSLAHVDVIYPVGDPIFIHIYERGKERRYKPIEPLLKDDEFEFMDAILDIIMSRASDYPPAENEEEQEKNIEDVYKKTVS” here?
Its value is “soluble”.

With “MSILRIHAREIFDSRGNPTVEVDLYTAKGLFRAAVPSGASTGIYEALELRDNDKTRFMGKGVSQAVEHINKTIAPALVSKKVNVVEQEKIDKLMIEMDGTENKSKFGANAILGVSLAVCKAGAVEKGVPLYRHIADLAGNPEVILPVPAFNVINGGSHAGNKLAMQEFMILPVGASSFREAMRIGAEVYHNLKNVIKEKYGKDATNVGDEGGFAPNILENKEALELLKTAIAKAGYTDQVVIGMDVAASEFYRSGKYDLDFKSPDDPSRYITPDQLADLYKSFVQNYPVVSIEDPFDQDDWGAWQKFTASAGIQVVGDDLTVTNPKRIAKAASEKSCNCLLLKVNQIGSVTESLQACKLAQSNGWGVMVSHRSGETEDTFIADLVVGLCTGQIKTGAPCRSERLAKYNQILRIEEELGSKAKFAGRSFRNPLAK” as the sequence, how does the “soluble on expression in E. coli” value read?
The value was “soluble”.

With “MNEEVRELERLVPAAATGDKTALQRIISIVYPQVLRYARTRLSGGRHPTPEDVAQEICLAVATSIAKFVDQGKPFMAFVYGIASNKVADAHRLYSRDLSNPTDEVPETEIDNDTPESFALLAAGSNRVQQLLDLLGDKPREILTLRVFVGLSAEETAEIVGSTPGAVRVAQHRALATLRKAIEQETGE” as the sequence, how does the “soluble on expression in E. coli” value read?
The value was “not soluble”.

Which “soluble on expression in E. coli” value does the source give for “MISDIRKDAEVRMEKCVEAFKTQISKVRTGRASPSLLDGIVVEYYGTPTPLRQLASVTVEDSRTLKINVFDRSMGPAVEKAIMASDLGLNPSSAGTDIRVPLPPLTEERRKDLTKIVRGEAEQARVAVRNVRRDANDKVKALLKDKAISEDDDRRSQEEVQKMTDAAIKKVDAALADKEAELMQF” here?
Its value is “not soluble”.
